Experimental data taken from article PMC10778704, “Comparative Analysis of Cyclization Techniques in Stapled Peptides: Structural Insights into Protein–Protein Interactions in a SARS-CoV-2 Spike RBD/hACE2 Model System” (International Journal of Molecular Sciences, 2023).
Bridge positions count the residues as written; N and C are the ends. Square brackets hold non-standard residues; d marks the D form. Peptide text beside a SMILES is read from it. S5 = C=CCCC[C@](C)(N)C(=O)O

experiment: circular dichroism; conditions: 10 mM Na phosphate; pH 7.4; 25 °C; 100 uM

**Q.** With `CC(=O)N[C@@H](CC(=O)O)C(=O)N[C@@H](CCCCN)C(=O)N[C@H]1CSCc2ccc(cc2)CSC[C@@H](C(=O)N[C@@H](CCC(=O)O)C(=O)N[C@@H](CC(=O)O)C(N)=O)NC(=O)[C@H](CCC(=O)O)NC(=O)[C@H](Cc2c[nH]cn2)NC(=O)[C@H](CC(N)=O)NC1=O` as the compound, how does the helicity read?
**A.** Its helicity is 5%.

**Q.** For `CC(=O)N[C@@H](Cc1c[nH]cn1)C(=O)N[C@@H](CCC(=O)O)C(=O)N[C@H]1CCCCn2cc(nn2)C[C@H](C(=O)N[C@@H](Cc2ccc(O)cc2)C(=O)N[C@@H](CCC(N)=O)C(N)=O)NC(=O)[C@H](CC(C)C)NC(=O)[C@H](CC(=O)O)NC(=O)[C@H](CCC(=O)O)NC1=O`, which helicity is on record?
**A.** Its helicity is 18.1%.

**Q.** Which helicity does the source give for `CC(=O)N[C@@H](CC(=O)O)C(=O)N[C@@H](CCCCN)C(=O)N[C@H]1CC(=O)NCCCC[C@@H](C(=O)N[C@@H](CCC(=O)O)C(=O)N[C@@H](CC(=O)O)C(N)=O)NC(=O)[C@H](CCC(=O)O)NC(=O)[C@H](Cc2c[nH]cn2)NC(=O)[C@H](CC(N)=O)NC1=O` (Ac-DKDNHEKED-NH2; lactam 3-7) here?
**A.** The helicity was 37.2%.

**Q.** For `CC(=O)N[C@@H](CC(=O)O)C(=O)N[C@@H](CCCCN)C(=O)N[C@H]1CCCCNC(=O)C[C@@H](C(=O)N[C@@H](CCC(=O)O)C(=O)N[C@@H](CC(=O)O)C(=O)N[C@H]2CCCCNC(=O)C[C@@H](C(N)=O)NC(=O)[C@H](CCC(N)=O)NC(=O)[C@H](Cc3ccc(O)cc3)NC(=O)[C@H](Cc3ccccc3)NC2=O)NC(=O)[C@H](CCC(=O)O)NC(=O)[C@H](Cc2c[nH]cn2)NC(=O)[C@H](CC(N)=O)NC1=O` (Ac-DKKNHEDEDKFYQD-NH2; lactam 3-7, 10-14), which helicity is on record?
**A.** Its helicity is 25.2%.

**Q.** With `CC(=O)N[C@@H](Cc1c[nH]cn1)C(=O)N[C@@H](CCC(=O)O)C(=O)N[C@@H]1Cc2cn(nn2)CCCC[C@@H](C(=O)N[C@@H](Cc2ccc(O)cc2)C(=O)N[C@@H](CCC(N)=O)C(N)=O)NC(=O)[C@H](CC(C)C)NC(=O)[C@H](CC(=O)O)NC(=O)[C@H](CCC(=O)O)NC1=O` as the compound, how does the helicity read?
**A.** The helicity was 25.7%.

**Q.** For `CC(=O)N[C@@H](CC(=O)O)C(=O)N[C@@H](CCCCN)C(=O)N[C@@]1(C)CCC/C=C/CCC[C@@](C)(C(=O)N[C@@H](CCC(=O)O)C(=O)N[C@@H](CC(=O)O)C(N)=O)NC(=O)[C@H](CCC(=O)O)NC(=O)[C@H](Cc2c[nH]cn2)NC(=O)[C@H](CC(N)=O)NC1=O` (Ac-DK[S5]NHE[S5]ED-NH2; staple (E) 3-7), which helicity is on record?
**A.** Its helicity is 4.7%.

**Q.** With `CC(=O)N[C@@H](CC(=O)O)C(=O)N[C@@H](CCCCN)C(=O)N[C@@H]1Cc2cn(nn2)CCCC[C@@H](C(=O)N[C@@H](CCC(=O)O)C(=O)N[C@@H](CC(=O)O)C(N)=O)NC(=O)[C@H](CCC(=O)O)NC(=O)[C@H](Cc2c[nH]cn2)NC(=O)[C@H](CC(N)=O)NC1=O` as the compound, how does the helicity read?
**A.** The helicity was 5.2%.

**Q.** With `CC(=O)N1CCC[C@H]1C(=O)N[C@@H](Cc1c[nH]cn1)C(=O)N[C@@H](CCC(=O)O)C(=O)N[C@H]1CCCCNC(=O)C[C@@H](C(=O)N[C@@H](Cc2ccc(O)cc2)C(=O)N[C@@H](CCC(N)=O)C(N)=O)NC(=O)[C@H](CC(C)C)NC(=O)[C@H](CC(=O)O)NC(=O)[C@H](CCC(=O)O)NC1=O` (Ac-PHEKEDLDYQ-NH2; lactam 4-8) as the compound, how does the helicity read?
**A.** The helicity was 56.7%.

**Q.** With `C=CCCC[C@](C)(NC(=O)[C@H](CC(C)C)NC(=O)[C@H](CC(=O)O)NC(=O)[C@H](CCC(=O)O)NC(=O)[C@](C)(CCCC=C)NC(=O)[C@H](CCC(=O)O)NC(=O)[C@H](Cc1c[nH]cn1)NC(C)=O)C(=O)N[C@@H](Cc1ccc(O)cc1)C(=O)N[C@@H](CCC(N)=O)C(N)=O` (Ac-HE[S5]EDL[S5]YQ-NH2) as the compound, how does the helicity read?
**A.** Its helicity is 11%.

**Q.** For `CC(=O)N[C@@H](Cc1c[nH]cn1)C(=O)N[C@@H](CCC(=O)O)C(=O)N[C@H]1Cn2cc(nn2)CCc2cn(nn2)C[C@@H](C(=O)N[C@@H](Cc2ccc(O)cc2)C(=O)N[C@@H](CCC(N)=O)C(N)=O)NC(=O)[C@H](CC(C)C)NC(=O)[C@H](CC(=O)O)NC(=O)[C@H](CCC(=O)O)NC1=O`, which helicity is on record?
**A.** The helicity was 50.7%.

**Q.** For `CC(=O)N[C@@H](Cc1c[nH]cn1)C(=O)N[C@@H](CCC(=O)O)C(=O)N[C@H]1CCCCNC(=O)CC[C@@H](C(=O)N[C@@H](Cc2ccc(O)cc2)C(=O)N[C@@H](CCC(N)=O)C(N)=O)NC(=O)[C@H](CC(C)C)NC(=O)[C@H](CC(=O)O)NC(=O)[C@H](CCC(=O)O)NC1=O` (Ac-HEKEDLEYQ-NH2; lactam 3-7), which helicity is on record?
**A.** The helicity was 4.6%.
